The supplement of paper PMC5998384

Assays:
[1] = tested on: HeLa Kyoto; assay: thermal stability score vs G1/S (z-score of summed log2 fold changes over temperatures); higher = more thermally stable than in G1/S
[2] = tested on: HeLa Kyoto; assay: solubility in G1/S (NP-40 vs SDS abundance) (log2 ratio); higher = more soluble; details: cell cycle stage: G1/S
[3] = tested on: HeLa Kyoto; assay: solubility change mitosis vs G1/S (difference of NP-40 vs SDS log2 ratios) (log2 ratio difference); higher = more soluble in mitosis
[4] = cell cycle stage: early G1 (4.5 h after nocodazole release)
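For solubility change mitosis vs G1/S (difference of NP-40 vs SDS log2 ratios) in this document: synchronized HeLa Kyoto cells (double thymidine block for G1/S, nocodazole release for mitosis), protein amounts in NP-40 versus SDS lysates quantified by mass spectrometry, three biological replicates.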
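For solubility in G1/S (NP-40 vs SDS abundance) in this document: HeLa Kyoto cells arrested at G1/S by double thymidine block, proteins quantified by TMT10plex mass spectrometry in mild NP-40 versus SDS extracts, three biological replicates.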
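For thermal stability score vs G1/S (z-score of summed log2 fold changes over temperatures) in this document: synchronized HeLa Kyoto cells, proteins quantified by TMT10plex mass spectrometry, three biological replicates, mitosis taken 0.5 h after nocodazole release, G1/S directly after double thymidine block.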

MDAATLTYDTLRFAEFEDFPETSEPVWILGRKYSIFTEKDEILSDVASRLWFTYRKNFPAIGGTGPTSDTGWGCMLRCGQMIFAQALVCRHLGRDWRWTQRKRQPDSYFSVLNAFIDRKDSYYSIHQIAQMGVGEGKSIGQWYGPNTVAQVLKKLAVFDTWSSLAVHIAMDNTVVMEEIRRLCRTSVPCAGATAFPADSDRHCNGFPAGAEVTNRPSPWRPLVLLIPLRLGLTDINEAYVETLKHCFMMPQSLGVIGGKPNSAHYFIGYVGEELIYLDPHTTQPAVEPTDGCFIPDESFHCQHPPCRMSIAELDPSIAVGFFCKTEDDFNDWCQQVKKLSLLGGALPMFELVELQPSHLACPDVLNLSLDSSDVERLERFFDSEDEDFEILSL [ATG4B]
thermal stability score [1, 4]: -0.634
thermal stability score ([1]; cell cycle stage: mitosis): 1.02
solubility in G1/S (log2) [2]: -0.00856
solubility change mitosis (log2) [3]: -0.28

MDAWVRFSAQSQARERLCRAAQYACSLLGHALQRHGASPELQKQIRQLESHLSLGRKLLRLGNSADALESAKRAVHLSDVVLRFCITVSHLNRALYFACDNVLWAGKSGLAPRVDQEKWAQRSFRYYLFSLIMNLSRDAYEIRLLMEQESSACSRRLKGSGGGVPGGSETGGLGGPGTPGGGLPQLALKLRLQVLLLARVLRGHPPLLLDVVRNACDLFIPLDKLGLWRCGPGIVGLCGLVSSILSILTLIYPWLRLKP [PEX11B]
thermal stability score [1, 4]: 0.106
thermal stability score ([1]; cell cycle stage: mitosis): 0.142
solubility in G1/S (log2) [2]: -0.779
solubility change mitosis (log2) [3]: 0.18

MDGLQASAGPLRRGRPKRRRKPQPHSGSVLALPLRSRKIRKQLRSVVSRMAALRTQTLPSENSEESRVESTADDLGDALPGGAAVAAVPDAARREPYGHLGPAELLEASPAARSLQTPSARLVPASAPPARLVEVPAAPVRVVETSALLCTAQHLAAVQSSGAPATASGPQVDNTGGEPAWDSPLRRVLAELNRIPSSRRRAARLFEWLIAPMPPDHFYRRLWEREAVLVRRQDHTYYQGLFSTADLDSMLRNEEVQFGQHLDAARYINGRRETLNPPGRALPAAAWSLYQAGCSLRLLCPQAFSTTVWQFLAVLQEQFGSMAGSNVYLTPPNSQGFAPHYDDIEAFVLQLEGRKLWRVYRPRVPTEELALTSSPNFSQDDLGEPVLQTVLEPGDLLYFPRGFIHQAECQDGVHSLHLTLSTYQRNTWGDFLEAILPLAVQAAMEENVEFRRGLPRDFMDYMGAQHSDSKDPRRTAFMEKVRVLVARLGHFAPVDAVADQRAKDFIHDSLPPVLTDRERALSVYGLPIRWEAGEPVNVGAQLTTETEVHMLQDGIARLVGEGGHLFLYYTVENSRVYHLEEPKCLEIYPQQADAMELLLGSYPEFVRVGDLPCDSVEDQLSLATTLYDKGLLLTKMPLALN [NO66]
thermal stability score [1, 4]: -0.151
thermal stability score ([1]; cell cycle stage: mitosis): 0.066
solubility in G1/S (log2) [2]: -0.879
solubility change mitosis (log2) [3]: 0.755

MDLHRAAFKMENSSYLPNPLASPALMVLASTAEASRDASIPCQQPRPFGVPVSVDKDVHIPFTNGSYTFASMYHRQGGVPGTFANRDFPPSLLHLHPQFAPPNLDCTPISMLNHSGVGAFRPFASTEDRESYQSAFTPAKRLKNCHDTESPHLRFSDADGKEYDFGTQLPSSSPGSLKVDDTGKKIFAVSGLISDREASSSPEDRNDRCKKKAAALFDSQAPICPICQVLLRPSELQEHMEQELEQLAQLPSSKNSLLKDAMAPGTPKSLLLSASIKREGESPTASPHSSATDDLHHSDRYQTFLRVRANRQTRLNARIGKMKRRKQDEGQREGSCMAEDDAVDIEHENNNRFEEYEWCGQKRIRATTLLEGGFRGSGFIMCSGKENPDSDADLDVDGDDTLEYGKPQYTEADVIPCTGEEPGEAKEREALRGAVLNGGPPSTRITPEFSKWASDEMPSTSNGESSKQEAMQKTCKNSDIEKITEDSAVTTFEALKARVRELERQLSRGDRYKCLICMDSYSMPLTSIQCWHVHCEECWLRTLGAKKLCPQCNTITAPGDLRRIYL [RNF220]
thermal stability score [1, 4]: 0.0151
thermal stability score ([1]; cell cycle stage: mitosis): -0.144
solubility in G1/S (log2) [2]: 0.298
solubility change mitosis (log2) [3]: -0.0624

MDRAPTEQNVKLSAEVEPFIPQKKSPDTFMIPMALPNDNGSVSGVEPTPIPSYLITCYPFVQENQSNRQFPLYNNDIRWQQPNPNPTGPYFAYPIISAQPPVSTEYTYYQLMPAPCAQVMGFYHPFPTPYSNTFQAANTVNAITTECTERPSQLGQVFPLSSHRSRNSNRGSVVPKQQLLQQHIKSKRPLVKNVATQKETNAAGPDSRSKIVLLVDASQQTDFPSDIANKSLSETTATMLWKSKGRRRRASHPTAESSSEQGASEADIDSDSGYCSPKHSNNQPAAGALRNPDSGTMNHVESSMCAGGVNWSNVTCQATQKKPWMEKNQTFSRGGRQTEQRNNSQVGFRCRGHSTSSERRQNLQKRPDNKHLSSSQSHRSDPNSESLYFEDEDGFQELNENGNAKDENIQQKLSSKVLDDLPENSPINIVQTPIPITTSVPKRAKSQKKKALAAALATAQEYSEISMEQKKLQEALSKAAGKKNKTPVQLDLGDMLAALEKQQQAMKARQITNTRPLSYTVVTAASFHTKDSTNRKPLTKSQPCLTSFNSVDIASSKAKKGKEKEIAKLKRPTALKKVILKEREEKKGRLTVDHNLLGSEEPTEMHLDFIDDLPQEIVSQEDTGLSMPSDTSLSPASQNSPYCMTPVSQGSPASSGIGSPMASSTITKIHSKRFREYCNQVLCKEIDECVTLLLQELVSFQERIYQKDPVRAKARRRLVMGLREVTKHMKLNKIKCVIISPNCEKIQSKGGLDEALYNVIAMAREQEIPFVFALGRKALGRCVNKLVPVSVVGIFNYFGAESLFNKLVELTEEARKAYKDMVAAMEQEQAEEALKNVKKVPHHMGHSRNPSAASAISFCSVISEPISEVNEKEYETNWRNMVETSDGLEASENEKEVSCKHSTSEKPSKLPFDTPPIGKQPSLVATGSTTSATSAGKSTASDKEEVKPDDLEWASQQSTETGSLDGSCRDLLNSSITSTTSTLVPGMLEEEEDEDEEEEEDYTHEPISVEVQLNSRIESWVSETQRTMETLQLGKTLNGSEEDNVEQSGEEEAEAPEVLEPGMDSEAWTADQQASPGQQKSSNCSSLNKEHSDSNYTTQTT [SECISBP2L]
thermal stability score [1, 4]: 1.54
thermal stability score ([1]; cell cycle stage: mitosis): 2.5
solubility in G1/S (log2) [2]: -0.226
solubility change mitosis (log2) [3]: 0.0796

MEEGAPRQPGPSQWPPEDEKEVIRRAIQKELKIKEGVENLRRVATDRRHLGHVQQLLRSSNRRLEQLHGELRELHARILLPGPGPGPAEPVASGPRPWAEQLRARHLEALRRQLHVELKVKQGAENMTHTCASGTPKERKLLAAAQQMLRDSQLKVALLRMKISSLEASGSPEPGPELLAEELQHRLHVEAAVAEGAKNVVKLLSSRRTQDRKALAEAQAQLQESSQKLDLLRLALEQLLEQLPPAHPLRSRVTRELRAAVPGYPQPSGTPVKPTALTGTLQVRLLGCEQLLTAVPGRSPAAALASSPSEGWLRTKAKHQRGRGELASEVLAVLKVDNRVVGQTGWGQVAEQSWDQTFVIPLERARELEIGVHWRDWRQLCGVAFLRLEDFLDNACHQLSLSLVPQGLLFAQVTFCDPVIERRPRLQRQERIFSKRRGQDFLRASQMNLGMAAWGRLVMNLLPPCSSPSTISPPKGCPRTPTTLREASDPATPSNFLPKKTPLGEEMTPPPKPPRLYLPQEPTSEETPRTKRPHMEPRTRRGPSPPASPTRKPPRLQDFRCLAVLGRGHFGKVLLVQFKGTGKYYAIKALKKQEVLSRDEIESLYCEKRILEAVGCTGHPFLLSLLACFQTSSHACFVTEFVPGGDLMMQIHEDVFPEPQARFYVACVVLGLQFLHEKKIIYRDLKLDNLLLDAQGFLKIADFGLCKEGIGFGDRTSTFCGTPEFLAPEVLTQEAYTRAVDWWGLGVLLYEMLVGECPFPGDTEEEVFDCIVNMDAPYPGFLSVQGLEFIQKLLQKCPEKRLGAGEQDAEEIKVQPFFRTTNWQALLARTIQPPFVPTLCGPADLRYFEGEFTGLPPALTPPAPHSLLTARQQAAFRDFDFVSERFLEP [PKN3]
thermal stability score [1, 4]: -0.36
thermal stability score ([1]; cell cycle stage: mitosis): -0.411
solubility in G1/S (log2) [2]: -0.177
solubility change mitosis (log2) [3]: 0.0781

MEGLLTRCRALPALATCSRQLSGYVPCRFHHCAPRRGRRLLLSRVFQPQNLREDRVLSLQDKSDDLTCKSQRLMLQVGLIYPASPGCYHLLPYTVRAMEKLVRVIDQEMQAIGGQKVNMPSLSPAELWQATNRWDLMGKELLRLRDRHGKEYCLGPTHEEAITALIASQKKLSYKQLPFLLYQVTRKFRDEPRPRFGLLRGREFYMKDMYTFDSSPEAAQQTYSLVCDAYCSLFNKLGLPFVKVQADVGTIGGTVSHEFQLPVDIGEDRLAICPRCSFSANMETLDLSQMNCPACQGPLTKTKGIEVGHTFYLGTKYSSIFNAQFTNVCGKPTLAEMGCYGLGVTRILAAAIEVLSTEDCVRWPSLLAPYQACLIPPKKGSKEQAASELIGQLYDHITEAVPQLHGEVLLDDRTHLTIGNRLKDANKFGYPFVIIAGKRALEDPAHFEVWCQNTGEVAFLTKDGVMDLLTPVQTV [PARS2]
thermal stability score [1, 4]: -2.04
thermal stability score ([1]; cell cycle stage: mitosis): -2.68
solubility in G1/S (log2) [2]: -0.0434
solubility change mitosis (log2) [3]: -0.176

MFHCIPLWRCNRHVESIDKRHCSLVYVPEEIYRYARSLEELLLDANQLRELPEQFFQLVKLRKLGLSDNEIQRLPPEIANFMQLVELDVSRNEIPEIPESISFCKALQVADFSGNPLTRLPESFPELQNLTCLSVNDISLQSLPENIGNLYNLASLELRENLLTYLPDSLTQLRRLEELDLGNNEIYNLPESIGALLHLKDLWLDGNQLSELPQEIGNLKNLLCLDVSENRLERLPEEISGLTSLTDLVISQNLLETIPDGIGKLKKLSILKVDQNRLTQLPEAVGECESLTELVLTENQLLTLPKSIGKLKKLSNLNADRNKLVSLPKEIGGCCSLTVFCVRDNRLTRIPAEVSQATELHVLDVAGNRLLHLPLSLTALKLKALWLSDNQSQPLLTFQTDTDYTTGEKILTCVLLPQLPSEPTCQENLPRCGALENLVNDVSDEAWNERAVNRVSAIRFVEDEKDEEDNETRTLLRRATPHPGELKHMKKTVENLRNDMNAAKGLDSNKNEVNHAIDRVTTSV [LRRC1]
thermal stability score [1, 4]: -0.136
thermal stability score ([1]; cell cycle stage: mitosis): -0.881
solubility in G1/S (log2) [2]: -0.0636
solubility change mitosis (log2) [3]: -0.136

MIDSVKLRRDSAADFFSHYEYLCALQNSVPLPAVRACLREGVLDFNADRLRGVDWAPLLSTLKINKDLPLVSIKSFFQPWLGDTGSDMNKFCRSRVPAIRYKDVTFQLCKALKGCLSISSVLKNLELNGLILRERDLTILAKGLNKSASLVHLSLANCPIGDGGLEIICQGIKSSITLKTVNFTGCNLTWQGADHMAKILKYQTMRRHEETWAESLRYRRPDLDCMAGLRRITLNCNTLIGDLGACAFADSLSEDLWLRALDLQQCGLTNEGAKALLEALETNTTLVVLDIRKNPLIDHSMMKAVIKKVLQNGRSAKSEYQWITSPSVKEPSKTAKQKRRTIILGSGHKGKATIRIGLATKKPVSSGRKHSLGKEYYAPAPLPPGVSGFLPWRTAERAKRHRGFPLIKTRDICNQLQQPGFPVTVTVESPSSSEVEEVDDSSESVHEVPEKTSIEQEALQEKLEECLKQLKEERVIRLKVDKRVSELEHENAQLRNINFSLSEALHAQSLTNMILDDEGVLGSIENSFQKFHAFLDLLKDAGLGQLATMAGIDQSDFQLLGHPQMTSTVSNPPKEEKKALEDEKPEPKQNALGQMQNIQFQKITGDARIPLPLDSFPVPVSTPEGLGTSSNNLGVPATEQRQESFEGFIARMCSPSPDATSGTGSQRKEEELSRNSRSSSEKKTKTESH [CEP78]
thermal stability score [1, 4]: 2.82
thermal stability score ([1]; cell cycle stage: mitosis): 3.49
solubility in G1/S (log2) [2]: 0.0898
solubility change mitosis (log2) [3]: 0.821

MKDYDELLKYYELHETIGTGGFAKVKLACHILTGEMVAIKIMDKNTLGSDLPRIKTEIEALKNLRHQHICQLYHVLETANKIFMVLEYCPGGELFDYIISQDRLSEEETRVVFRQIVSAVAYVHSQGYAHRDLKPENLLFDEYHKLKLIDFGLCAKPKGNKDYHLQTCCGSLAYAAPELIQGKSYLGSEADVWSMGILLYVLMCGFLPFDDDNVMALYKKIMRGKYDVPKWLSPSSILLLQQMLQVDPKKRISMKNLLNHPWIMQDYNYPVEWQSKNPFIHLDDDCVTELSVHHRNNRQTMEDLISLWQYDHLTATYLLLLAKKARGKPVRLRLSSFSCGQASATPFTDIKSNNWSLEDVTASDKNYVAGLIDYDWCEDDLSTGAATPRTSQFTKYWTESNGVESKSLTPALCRTPANKLKNKENVYTPKSAVKNEEYFMFPEPKTPVNKNQHKREILTTPNRYTTPSKARNQCLKETPIKIPVNSTGTDKLMTGVISPERRCRSVELDLNQAHMEETPKRKGAKVFGSLERGLDKVITVLTRSKRKGSARDGPRRLKLHYNVTTTRLVNPDQLLNEIMSILPKKHVDFVQKGYTLKCQTQSDFGKVTMQFELEVCQLQKPDVVGIRRQRLKGDAWVYKRLVEDILSSCKV [MELK]
thermal stability score [1, 4]: -0.242
thermal stability score ([1]; cell cycle stage: mitosis): 0.0849
solubility in G1/S (log2) [2]: -0.42
solubility change mitosis (log2) [3]: 0.0602
